Where two headings read alike, the source gives them in different places.
What was measured:
Test in all cases: co-IP
[1] = target: AMPA receptor subunit GluA1 (rat (endogenous in adult Sprague-Dawley rat brain)) (UniProt P19490)
[2] = target: AMPA receptor subunit GluA1 (rat (endogenous in adult Sprague-Dawley rat brain)) (UniProt P19490); remark: listed apart in the source
[3] = target: AMPA receptor subunit GluA1 (rat (endogenous in adult Sprague-Dawley rat brain)) (UniProt P19490); remark: listed apart in the source
[4] = target: AMPA receptor subunit GluA1 (rat (endogenous in adult Sprague-Dawley rat brain)) (UniProt P19490); remark: listed apart in the source
[5] = target: AMPA receptor subunit GluA2 (rat (endogenous in adult Sprague-Dawley rat brain)) (UniProt P19491)
AMPA receptor subunit GluA2 (rat (endogenous in adult Sprague-Dawley rat brain)), sequence (P19491 22-883): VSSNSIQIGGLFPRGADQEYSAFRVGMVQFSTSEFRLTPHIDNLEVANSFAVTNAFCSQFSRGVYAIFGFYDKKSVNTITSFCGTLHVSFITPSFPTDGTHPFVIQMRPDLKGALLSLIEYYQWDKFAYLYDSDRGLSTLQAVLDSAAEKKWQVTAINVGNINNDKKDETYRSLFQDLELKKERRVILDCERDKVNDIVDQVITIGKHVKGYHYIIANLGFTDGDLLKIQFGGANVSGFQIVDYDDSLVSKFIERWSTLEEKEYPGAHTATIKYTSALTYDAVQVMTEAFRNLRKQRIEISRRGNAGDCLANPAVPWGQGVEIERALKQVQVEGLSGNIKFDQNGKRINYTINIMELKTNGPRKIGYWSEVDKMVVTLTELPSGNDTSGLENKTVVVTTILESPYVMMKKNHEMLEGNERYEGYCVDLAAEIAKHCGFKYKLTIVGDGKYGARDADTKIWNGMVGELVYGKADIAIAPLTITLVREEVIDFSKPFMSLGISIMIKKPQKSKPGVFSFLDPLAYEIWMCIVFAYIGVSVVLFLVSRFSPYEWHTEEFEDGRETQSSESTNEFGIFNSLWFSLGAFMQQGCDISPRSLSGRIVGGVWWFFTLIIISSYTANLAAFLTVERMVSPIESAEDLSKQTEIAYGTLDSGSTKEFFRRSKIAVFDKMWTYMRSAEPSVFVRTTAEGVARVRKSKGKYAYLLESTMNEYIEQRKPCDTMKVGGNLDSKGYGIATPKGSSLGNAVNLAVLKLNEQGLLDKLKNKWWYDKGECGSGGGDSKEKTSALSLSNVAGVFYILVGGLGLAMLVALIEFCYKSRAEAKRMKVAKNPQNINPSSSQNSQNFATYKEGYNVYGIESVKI

[6] = target: GluA2/3+GluA4 (rat (endogenous in adult Sprague-Dawley rat brain))
[7] = target: AMPA receptor subunit GluA2 (rat (endogenous in adult Sprague-Dawley rat brain)) (UniProt P19491); remark: listed apart in the source

AMPA receptor subunit GluA1, sequence (P19490 19-907): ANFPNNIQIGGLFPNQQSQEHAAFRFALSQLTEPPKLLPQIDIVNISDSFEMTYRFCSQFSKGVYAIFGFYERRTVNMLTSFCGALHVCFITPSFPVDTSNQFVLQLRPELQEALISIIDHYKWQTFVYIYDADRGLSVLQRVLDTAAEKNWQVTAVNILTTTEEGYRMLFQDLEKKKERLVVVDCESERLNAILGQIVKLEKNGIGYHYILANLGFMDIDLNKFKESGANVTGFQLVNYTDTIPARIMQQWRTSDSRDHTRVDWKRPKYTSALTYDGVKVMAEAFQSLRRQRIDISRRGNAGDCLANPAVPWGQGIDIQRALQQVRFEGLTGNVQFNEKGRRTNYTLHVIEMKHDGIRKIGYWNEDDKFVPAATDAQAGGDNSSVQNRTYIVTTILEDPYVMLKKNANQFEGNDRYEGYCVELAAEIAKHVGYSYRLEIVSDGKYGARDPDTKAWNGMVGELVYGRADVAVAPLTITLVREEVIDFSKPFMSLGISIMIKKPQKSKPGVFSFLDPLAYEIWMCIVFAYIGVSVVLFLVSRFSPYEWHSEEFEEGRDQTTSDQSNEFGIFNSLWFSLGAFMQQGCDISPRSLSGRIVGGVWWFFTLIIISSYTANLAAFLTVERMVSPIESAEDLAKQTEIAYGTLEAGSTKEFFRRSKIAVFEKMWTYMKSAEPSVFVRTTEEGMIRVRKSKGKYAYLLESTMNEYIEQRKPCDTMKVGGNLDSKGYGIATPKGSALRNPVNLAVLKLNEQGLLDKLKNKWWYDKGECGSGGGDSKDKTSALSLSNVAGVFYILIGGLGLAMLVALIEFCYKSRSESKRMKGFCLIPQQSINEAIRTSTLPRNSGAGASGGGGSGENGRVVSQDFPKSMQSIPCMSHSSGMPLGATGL
AMPA receptor subunit GluA1 (rat (endogenous in adult Sprague-Dawley rat brain)), sequence (P19490 19-907): as above
AMPA receptor subunit GluA2, sequence (P19491 22-883): as the sequence (P19491 22-883) above

| Substance | percent of GluA2 left in the unbound fraction after IP with GluA1 antibody [1] | percent of GluA2 left in the unbound fraction after IP with GluA1 antibody [2] | percent of GluA2 left in the unbound fraction after IP with GluA1 antibody [3] | percent of GluA2 left in the unbound fraction after IP with GluA1 antibody [4] | percent of GluA1 complexed with GluA2 (the paper's estimate) [5] | percent of GluA1 removed by IP with GluA2/3+GluA4 antibodies [6] | percent of GluA1 complexed with GluA2 (the paper's estimate) [7] |
| --- | --- | --- | --- | --- | --- | --- | --- |
| AMPA receptor subunit GluA2 (from UniProt P19491 22-883) | 65% | 62% | 53% | 55% |  |  |  |
| AMPA receptor subunit GluA1 (from UniProt P19490 19-907) |  |  |  |  | > 80% | 93% | > 80% |

Source: PMC3005033
